To fix the notation:
T1: interleukin-23 receptor (IL-23R), Q5VWK5
T1 chain: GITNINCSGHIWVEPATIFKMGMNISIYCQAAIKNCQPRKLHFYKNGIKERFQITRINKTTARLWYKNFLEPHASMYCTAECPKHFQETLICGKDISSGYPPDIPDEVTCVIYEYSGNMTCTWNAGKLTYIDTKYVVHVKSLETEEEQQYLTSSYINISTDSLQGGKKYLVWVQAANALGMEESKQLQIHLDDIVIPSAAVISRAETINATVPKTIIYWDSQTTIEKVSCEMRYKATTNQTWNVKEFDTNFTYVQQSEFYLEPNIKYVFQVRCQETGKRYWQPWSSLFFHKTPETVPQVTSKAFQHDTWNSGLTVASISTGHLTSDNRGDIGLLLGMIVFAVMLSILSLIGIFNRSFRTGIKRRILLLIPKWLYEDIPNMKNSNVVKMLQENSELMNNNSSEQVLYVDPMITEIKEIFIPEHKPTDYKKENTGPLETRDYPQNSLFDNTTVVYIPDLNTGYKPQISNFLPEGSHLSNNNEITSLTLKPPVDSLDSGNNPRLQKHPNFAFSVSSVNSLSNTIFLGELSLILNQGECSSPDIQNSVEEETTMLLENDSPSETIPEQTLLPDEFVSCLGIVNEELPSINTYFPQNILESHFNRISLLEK

B1: SEQ ID NO: 192 (peptide)
peptide: [Pen]ET[Trp(7-Me)]K(Lipidated)[Pen][2‑amino‑3‑(4-(2-aminoethoxy)phenyl)propanoic acid][2‑amino‑3‑(6-hydroxynaphthalen-2-yl)propanoic acid][Thp]K(Ac)N[3Pal][Sar]
modifications: disulfide 1-6 (inferred); ends not checked; also: K5: lipidated lysine, lipid not given here
B2: SEQ ID NO: 229 (peptide)
peptide: K(lipid)[Pen]NT[Trp(7-Me)]K(Ac)[Pen][AEF][2Nal(6-OH)][Thp]EN[3Pal][Sar]
modifications: disulfide 2-7 (inferred); ends not checked; also: Lys1 lipidated, lipid not given here
B3: SEQ ID NO: 214 (peptide)
peptide: [Pen]ET[Trp(7-Me)]K(lipid)[Pen][2‑amino‑3‑(4-(2-aminoethoxy)phenyl)propanoic acid][2‑amino‑3‑(6-hydroxynaphthalen-2-yl)propanoic acid][Thp]K(Ac)N[3Pal][Sar]
modifications: disulfide 1-6 (inferred); ends not checked; also: K5: lipidated lysine, lipid not given here
B4: SEQ ID NO: 204 (peptide)
peptide: [(R)‑3‑carboxy‑2‑(4-(((R)-5-carboxy-5-hydrazineylpentyl)amino)-4-oxobutanamido)‑N,N,N‑trimethylpropan‑1‑aminium][Pen]NT[Trp(7-Me)]K(Ac)[Pen][2‑amino‑3‑(4-(2-aminoethoxy)phenyl)propanoic acid][2‑amino‑3‑(6-hydroxynaphthalen-2-yl)propanoic acid][Thp]EN[3Pal][NMeK]
modifications: disulfide 2-7 (inferred); not fully specified (residue 14); ends not checked; also: X14: lipidated N-methyl-lysine, lipid not given here
B5: SEQ ID NO: 221 (peptide)
peptide: R[Pen]NT[Trp(7-Me)]K(Ac)[Pen][2‑amino‑3‑(4-(2-aminoethoxy)phenyl)propanoic acid][2‑amino‑3‑(6-hydroxynaphthalen-2-yl)propanoic acid][Thp]K(Ac)N[3Pal][Sar]K(lipid)
modifications: disulfide 2-7 (inferred); ends not checked; also: Lys15 lipidated, lipid not given here
B6: SEQ ID NO: 190 (peptide)
peptide: R[Pen]NT[Trp(7-Me)]K(Ac)[Pen][2‑amino‑3‑(4-(2-aminoethoxy)phenyl)propanoic acid][2‑amino‑3‑(6-hydroxynaphthalen-2-yl)propanoic acid][Thp]EN[3Pal][NMeK]
modifications: disulfide 2-7 (inferred); not fully specified (residue 14); ends not checked; also: X14 lipidated N-methyl-lysine, lipid not given here
B7: SEQ ID NO: 198 (peptide)
peptide: [Pen]NT[Trp(7-Me)]K(Ac)[Pen][5‑(4-(2-amino-2-carboxyethyl)phenoxy)‑N,N,N‑trimethylpentan‑1‑aminium][2‑amino‑3‑(6-hydroxynaphthalen-2-yl)propanoic acid][Thp]K(Lipidated)N[3Pal][Sar]
modifications: disulfide 1-6 (inferred); ends not checked; also: K10: lipidated lysine, lipid not given here
B8: SEQ ID NO: 210 (peptide)
peptide: [(R)‑3‑carboxy‑2‑(4-(((R)-5-carboxy-5-hydrazineylpentyl)amino)-4-oxobutanamido)‑N,N,N‑trimethylpropan‑1‑aminium][Pen]NT[Trp(7-Me)]K(Ac)[Pen][2‑amino‑3‑(4-(2-aminoethoxy)phenyl)propanoic acid][2‑amino‑3‑(6-hydroxynaphthalen-2-yl)propanoic acid][Thp]EN[3Pal][NMeK]
modifications: disulfide 2-7 (inferred); not fully specified (residue 14); ends not checked; also: X14: lipidated N-methyl-lysine, lipid not given here
B9: SEQ ID NO: 216 (peptide)
peptide: K(lipid)[Pen]NT[Trp(7-Me)]K(Ac)[Pen][2‑amino‑3‑(4-(2-aminoethoxy)phenyl)propanoic acid][2‑amino‑3‑(6-hydroxynaphthalen-2-yl)propanoic acid][Thp]K(Ac)N[3Pal][Sar]
modifications: disulfide 2-7 (inferred); ends not checked; also: Lys1 lipidated, lipid not given here
B10: SEQ ID NO: 185 (peptide)
peptide: [Pen]NT[Trp(7-Me)]K(Ac)[Pen][2‑amino‑3‑(4-(2-aminoethoxy)phenyl)propanoic acid][2‑amino‑3‑(6-hydroxynaphthalen-2-yl)propanoic acid][Thp]K(Lipidated)N[3Pal][Sar]
modifications: disulfide 1-6 (inferred); ends not checked; also: K10 lipidated lysine, lipid not given here
B11: SEQ ID NO: 191 (peptide)
peptide: R[Pen]NT[Trp(7-Me)]K(Ac)[Pen][2‑amino‑3‑(4-(2-aminoethoxy)phenyl)propanoic acid][2‑amino‑3‑(6-hydroxynaphthalen-2-yl)propanoic acid][Thp]EN[3Pal][Sar]K(Lipidated)
modifications: disulfide 2-7 (inferred); ends not checked; also: K15: lipidated lysine, lipid not given here
B12: SEQ ID NO: 218 (peptide)
peptide: R[Pen]NT[Trp(7-Me)]K(Ac)[Pen][2‑amino‑3‑(4-(2-aminoethoxy)phenyl)propanoic acid][2‑amino‑3‑(6-hydroxynaphthalen-2-yl)propanoic acid][Thp]EN[3Pal][Sar]K(lipid)
modifications: disulfide 2-7 (inferred); ends not checked; also: Lys15 lipidated, lipid not given here
B13: SEQ ID NO: 215 (peptide)
peptide: [Pen]ET[Trp(7-Me)]K(Ac)[Pen][2‑amino‑3‑(4-(2-aminoethoxy)phenyl)propanoic acid][2‑amino‑3‑(6-hydroxynaphthalen-2-yl)propanoic acid][Thp]K(lipid)N[3Pal][Sar]
modifications: disulfide 1-6 (inferred); ends not checked; also: K10: lipidated lysine, lipid not given here
B14: SEQ ID NO: 193 (peptide)
peptide: [Pen]ET[Trp(7-Me)]K(Ac)[Pen][2‑amino‑3‑(4-(2-aminoethoxy)phenyl)propanoic acid][2‑amino‑3‑(6-hydroxynaphthalen-2-yl)propanoic acid][Thp]K(Lipidated)N[3Pal][Sar]
modifications: disulfide 1-6 (inferred); ends not checked; also: K10: lipidated lysine, lipid not given here
B15: SEQ ID NO: 239 (peptide)
peptide: [d(hLys(Me3))][Pen][N,N‑dimethylasparagine]T[Trp(7-Me)]K(lipid)[Pen][AEF][2Nal(6-OH)][Thp]EN[3Pal][Sar]
modifications: disulfide 2-7 (inferred); ends not checked; also: Lys6 lipidated, lipid not given here
B16: SEQ ID NO: 186 (peptide)
peptide: [Pen]NT[Trp(7-Me)]K(Ac)[Pen][2‑amino‑3‑(4-(2-aminoethoxy)phenyl)propanoic acid][2‑amino‑3‑(6-hydroxynaphthalen-2-yl)propanoic acid][Thp]K(Lipidated)N[3Pal][Sar]
modifications: disulfide 1-6 (inferred); ends not checked; also: K10 lipidated lysine, lipid not given here

Starred links: 1 amine or outer side, 2 acyl side, 3 side chain; linkers in the order of their positions; H or OH if unused. Positions of bridges follow the written chain, without caps; N, C: chain ends. Non-standard residues stand in square brackets, D forms with d. No end group written: not given here. N,N‑dimethylasparagine = N,N-dimethylasparagine, CN(C)C(=O)C[C@H](N[*:1])C(=O)[*:2]; 2Nal(6-OH) = N[C@@H](Cc1ccc2cc(O)ccc2c1)C(=O)O; Trp(7-Me) = Cc1cccc2c(C[C@H](N)C(=O)O)c[nH]c12; d(hLys(Me3)) = C[N+](C)(C)CCCCC[C@@H](N)C(=O)O; AEF = NCCOc1ccc(C[C@H](N)C(=O)O)cc1; 3Pal = N[C@@H](Cc1cccnc1)C(=O)O; Lipidated = not defined here; NMeK = CN[C@@H](CCCCN)C(=O)O; Pen = CC(C)(S)[C@H](N)C(=O)O; lipid = not defined here; Thp = NC1(C(=O)O)CCOCC1; Sar = CNCC(=O)O

18 molecules from US20240279281A1, “Peptide Inhibitors of Interleukin-23 Receptor” (Janssen Pharmaceutica NV, priority 2023, published 2024) can be followed below.

For the test, the target named is T1, interleukin-23 receptor (IL-23R), Q5VWK5. Nature of the test: cell-based or functional assay.
R[Pen]NT[Trp(7-Me)]K(Ac)[Pen][2‑amino‑3‑(4-(2-aminoethoxy)phenyl)propanoic acid][2‑amino‑3‑(6-hydroxynaphthalen-2-yl)propanoic acid][Thp]K(Ac)N[3Pal][Sar] (disulfide 2-7 (inferred); ends not checked) [SEQ ID NO: 220] displayed a PBMC pSTAT3 IC50 of under 1 nM. The figure for B1 is under 1 nM; for B2 it is under 1 nM; for B3 it is under 1 nM. Under B4 stands under 1 nM; under B5, over 1 nM; under B6, under 1 nM. Under B7 stands under 1 nM; under B8, under 1 nM; under B9, under 0.1 nM.

Molecule B10 gave a PBMC pSTAT3 IC50 of under 1 nM. B11 had a PBMC pSTAT3 IC50 of under 1 nM. In turn, B12 returned a PBMC pSTAT3 IC50 of over 1 nM. Consider B13, for which the PBMC pSTAT3 IC50 was under 0.1 nM. Regarding B14, the PBMC pSTAT3 IC50 was under 1 nM.

Turning to B15, the PBMC pSTAT3 IC50 is under 1 nM. In the case of B16, the PBMC pSTAT3 IC50 is under 1 nM. The figure for R[Pen]NT[Trp(7-Me)]K(Ac)[Pen][2‑amino‑3‑(4-(2-aminoethoxy)phenyl)propanoic acid][2‑amino‑3‑(6-hydroxynaphthalen-2-yl)propanoic acid][Thp]EN[3Pal][Sar] (disulfide 2-7 (inferred); ends not checked) [SEQ ID NO: 217] is under 0.1 nM.
